Assay results as given in US20260250410A1 (SICHUAN HUIYU PHARMACEUTICAL, published 2026).
Changes are numbered by the printed parent chain.

B1: SB6 (antibody, V domains shown)
VH: QGQMQQSGAELVKPGASVKLSCKTSGFTFNSSYITWLKQKPGQSLEWIAWIFAGTGGTYYNEKFTDKAQLTVDTTSSTAYMQFSSLTTEDSAIYYCARHGLGYDYWGQGTTLTVSS
VL: SIVMTQTPKFLLVSAGDRVTITCKASQSVNTDVAWYQQKSGQSPKLLIYSASNRYTGVPDRFTGSGYGTDFTFTISTVQAEDLAVYFCQQDHSSPPWTFGGGTKLEIK
notes: single B cell antibody, expressed in CHO
B2: SB1 (antibody, V domains shown)
VH: QVQLQQSGPDLVRPGESVKISCKGSGYTFTDHAIHWVRQSHAKSLEWIGVISFSYDNTKYNQNFKGKATMTVDKSSNTAYMELARLTSEDSAIYYCARDCYGSNRGYFDYWGQGTTLTVSS
VL: DIRMTQSPSSMYASLGERVTITCKASQDINRFLSWFLQRPGKAPKTLIYRANNLVEGVPSRFSGSGSGQDYSLIISNLEYEDMGIYYCLQYDEFPRTFGGGTKLEIK
notes: as for B1
B3: SB4 (antibody, V domains shown)
VH: QVQLQQSGAELVRPGTSVKISCKASGYTFTNYWLGWVKQRPGHGLEWIGDNYPGDNYRNFNEKFKGKATLTTDASSSTAYLQLSSLISEDSAVYFCTRSGGSRYYTMDYWGQGTSVTVSS
VL: DIVMTQAAFSNPVTLGTSASISCRSSRSLLHNNGITYLYWYLQKPGQSPQLLIYQMSNLASGVPDRFHSSGSGTDFTLSISRVEAEDVGVYYCAQNLDLPYTFGGGTKLEIK
notes: as for B1
B4: SB7 (antibody, V domains shown)
VH: QVQLQQSGPELVSPGESVKISCKGSGYTFTDYAVHWVKQSHSKSLEWIGVKSVYYGITKYSQNFKDKATMTVDKSSSTAYMELARLTSEDSAIYYCARDSYGSSRGYFDYWGQGTTLTVSS
VL: DIKMTQSPSSIYVSPGERVTITCKASQDINSFLSWFQQKPGKSPKTLIYRANRLVDGVPSRFSGSGSGQDYSLTISSLEYEDMGIYYCLQYDEFPRTFGGGTKLEIK
notes: as for B1
B5: SB2 (antibody, V domains shown)
VH: DVKLVESGGGLVKPGGSLKLSCAASGFTFSSYTMSWVRQTPEKRLEWVATISSGGIYTYYPDSVKGRFTISRDNAKDTLYLQMNSLRSEDTAVYYCSSPHSYAISYGYFDYWGQGTTLTVSS
VL: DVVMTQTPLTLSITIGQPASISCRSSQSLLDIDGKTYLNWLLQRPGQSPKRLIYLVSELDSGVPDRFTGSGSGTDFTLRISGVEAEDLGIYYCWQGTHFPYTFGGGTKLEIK
notes: as for B1
B6: SB3 (antibody, V domains shown)
VH: B5 VH with K13E, T28P, N84S
VL: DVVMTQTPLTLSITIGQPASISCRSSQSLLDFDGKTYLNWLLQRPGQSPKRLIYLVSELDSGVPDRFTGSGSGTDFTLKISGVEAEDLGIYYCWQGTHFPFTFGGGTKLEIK
notes: as for B1
B7: 3C11-MMAE (antibody, V domains shown)
VH: EVQLQQSGTVLARPGASVKMSCKASGYNFISYWLHWIKQRPGQGLEWIGGIYPGNTDTTYNQKFKGKAKVTAVTSATTAYMELSSLTNEDSAVYYCIRYDYDRGMDYWGQGTTVTVSS
VL: DIQMTQSPSSFSVSLGDRVTITCRASEDIYYRLAWYQQKPGNAPRLLISGATALETGVPSRFSGSGSGKDYTLSITSLQTEDVATYYCQHYWNIPWTFGGGTKLEIK
modifications: vc-MMAE coupled after reduction, sites not stated; DAR 3.48
B8: 3B12H5-MMAE (antibody, V domains shown)
VH: EVQLQQSGTVLARPGASVKMSCKASGYSFTIYWVHWVKQRPGQGLEWIGAVYPGNDDTSYNQNFKGKAKLTAVTSATTAYMELSSLTIDDSAVYYCTRHTYDEVFDYWGQGTTVTVSS
VL: B7 VL with Q3V, F11L, R24K, A51G, A53N, T56A, V58I, T85I, I94T
modifications: vc-MMAE coupled after reduction, sites not stated; DAR 3.2
B9: 8E5-MMAE (antibody, V domains shown)
VH: EVQLKESGPELKKPGETVKISCKASGYTLTDFSMHWLKQAPGKGLKWMGWINTETGAPTYADDFKGRFALSLDTSANTAYLQINNLKNEDTATYFCSRGRDYDPHFDYWGQGTTVTVSS
VL: EIVLTQSPATLSVTPGDRVSLSCRASQSISDFLHWYQQRSHESPRLLIKYASQSISGIPSRFGGSGSGSDFTLNINTVEPEDVGMYYCQSAHSFPYTFGGGTKLEIK
modifications: vc-MMAE coupled after reduction, sites not stated; DAR 3.65
B10: 5B8-MMAE (antibody, V domains shown)
VH: EVQLKESGGGLVQPGGSLRISCATSGLTFTHYHMSWVRQPPGKAPEWLAIIRNKAYGYTTDYSASVRGRFTISRDDSQSILYLQMNTLRAEDSATYYCVREGGYGYDGTFAYWGQGTTVTVSS
VL: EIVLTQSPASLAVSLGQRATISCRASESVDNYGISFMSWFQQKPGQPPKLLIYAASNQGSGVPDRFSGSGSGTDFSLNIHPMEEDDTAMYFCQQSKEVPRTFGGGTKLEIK
modifications: vc-MMAE coupled after reduction, sites not stated; DAR 3.85
B11: 8C9-MMAE (antibody, V domains shown)
VH: B10 VH with A90P
VL: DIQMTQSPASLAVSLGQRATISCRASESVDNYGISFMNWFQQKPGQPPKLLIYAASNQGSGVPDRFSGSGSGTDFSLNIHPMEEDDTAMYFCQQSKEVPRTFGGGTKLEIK
modifications: vc-MMAE coupled after reduction, sites not stated; DAR 3.44
B12: 10D2-MMAE (antibody, V domains shown)
VH: EVQLQQSGPELKKPGETVKISCKASGYTFTDYSMHWVKQAPGKGLKWMGWINTETGQPTYADDFKGRFAFSLETSASSAYLQINNLKNEDTATYFCTRTFYYDYVGDYWGQGTTVTVSS
VL: DIVMTQSHKFMSTSVGDRVSITCKASQDVSTAVAWYRQKPGQSPKLLIYWASTRHTGVPDRLTGSGSGTDFALTINSVQAEDLALYYCQQHSSTPYTFGGGTKLEIK
modifications: vc-MMAE coupled after reduction, sites not stated; DAR 3.5
B13: 6A7-MMAE (antibody, V domains shown)
VH: EVQLKESGAELVRPGASVKVSCKASGYSFTSYWMNWVKQRPGQGLEWIGMIHPSDSETKLNQKFRDRASLTVDKSSSTAYMQLSSPTSEDSAVYYCTINYESFYYAMDYWGQGTTVTVSS
VL: DIVMTQSPASLAVSLGQRATISCRASKSVSTSGYSYMHWYQQKPGQPPKLLLYLASNLESGVPARFSGSGSGADFTLNIHPVEEEDAATYYCLHSRELPYTFGGGTKLEIK
modifications: vc-MMAE coupled after reduction, sites not stated; DAR 3.6
B14: G10F6-MMAE (antibody, V domains shown)
VH: EVKLVESGPGILQPSQTLSLTCSFSGFSLSTSGMGVSWVRQPSGKGLEWLAHIYWDDDKRYNPSLKGRLTISKDTPRNQVFLEITSVDTTDTATYYCARVPGNWDEDAMDYWGQGTTVTVSS
VL: DIQMTQSPLSLPVSLGDQASISCRSSQNIVHTNGNTYLEWYLQKVGQSPKLLIYKVSNRFSGVPDRFSGSGSGTDFTLKISRVEAEDLGVYYCFQGSHVPYTFGGGTKLEIK
modifications: vc-MMAE coupled after reduction, sites not stated; DAR 3.6
B15: 1CP-063 (antibody, V domains shown)
VH: EVNLKESGPELVKPGASVRISCKASGYTFTSYYIHWVKQRPGQGLEWIGWIYPGNVNSKYNEKFKGKVTLTADKSSITAYMQLSSLTSEDSAVYFCAREDYGHYYAMDYWGQGTTVTVSS
VL: DIVMTQSPSSMYASLGERVTITCKASQDIKSYLSWYQQKPWKSPKTLIYYATSLADGVPSRFSGSGSGQDYSLTISSLESDDTATYYCLQYGESPWTFGGGTKLEIK
notes: murine hybridoma mAb

target: T1, HuCDCP1-C (human, UniProt Q9H5V8 30-667); experiment: ELISA, coated antigen
T1 construct: range 30-667; expressed in HEK-293T, purified by Fc/his tag; also called human CDCP1-C; full-length extracellular domain of human CDCP1; not shown: Fc or his tag
T1 sequence (looked up): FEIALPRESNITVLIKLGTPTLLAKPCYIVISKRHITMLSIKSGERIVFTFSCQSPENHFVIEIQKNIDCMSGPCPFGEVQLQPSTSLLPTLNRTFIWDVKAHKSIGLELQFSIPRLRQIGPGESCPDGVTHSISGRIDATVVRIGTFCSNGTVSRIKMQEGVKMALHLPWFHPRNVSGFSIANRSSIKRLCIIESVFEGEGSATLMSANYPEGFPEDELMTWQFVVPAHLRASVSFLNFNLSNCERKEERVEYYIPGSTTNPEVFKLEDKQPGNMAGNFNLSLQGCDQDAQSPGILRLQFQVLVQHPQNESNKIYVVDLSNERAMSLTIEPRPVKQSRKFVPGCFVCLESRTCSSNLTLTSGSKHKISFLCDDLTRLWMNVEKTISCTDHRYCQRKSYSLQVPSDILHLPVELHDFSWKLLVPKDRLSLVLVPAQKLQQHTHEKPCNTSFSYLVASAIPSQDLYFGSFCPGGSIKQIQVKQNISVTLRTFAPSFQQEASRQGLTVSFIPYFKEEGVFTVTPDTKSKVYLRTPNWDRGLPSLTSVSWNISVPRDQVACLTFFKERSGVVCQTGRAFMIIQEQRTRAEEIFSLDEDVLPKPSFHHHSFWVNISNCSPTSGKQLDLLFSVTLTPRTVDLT
Experimental: (§1) The candidate antibodies obtained from Example 6 were subjected to gene cloning, constructed into an expression vector for a small amount of expression in CHO cells, and purified with an Fc affinity column (AT Protein A Diamond Plus. No. AA402312). Antibody purity was analyzed by HPLC and determined by Nanodrop. High-throughput affinity assay was carried out for a small amount of antibodies by Caterra. […] At the same time, 2 μg/ml antigen human CDCP1-C and 2 μg/ml human CDCP1-B were used for coating, and the antigen-antibody binding capacity was tested by ELISA for verification.

Binder | EC50 [nM]
B1 | 0.027
B2 | 0.092
B3 | 0.071
B4 | 0.034
B5 | 0.045
B6 | 0.049

target: T2, human CDCP1 on tumor cells (human, UniProt Q9H5V8 30-836); experiment: cell-based or functional assay
T2 sequence (looked up): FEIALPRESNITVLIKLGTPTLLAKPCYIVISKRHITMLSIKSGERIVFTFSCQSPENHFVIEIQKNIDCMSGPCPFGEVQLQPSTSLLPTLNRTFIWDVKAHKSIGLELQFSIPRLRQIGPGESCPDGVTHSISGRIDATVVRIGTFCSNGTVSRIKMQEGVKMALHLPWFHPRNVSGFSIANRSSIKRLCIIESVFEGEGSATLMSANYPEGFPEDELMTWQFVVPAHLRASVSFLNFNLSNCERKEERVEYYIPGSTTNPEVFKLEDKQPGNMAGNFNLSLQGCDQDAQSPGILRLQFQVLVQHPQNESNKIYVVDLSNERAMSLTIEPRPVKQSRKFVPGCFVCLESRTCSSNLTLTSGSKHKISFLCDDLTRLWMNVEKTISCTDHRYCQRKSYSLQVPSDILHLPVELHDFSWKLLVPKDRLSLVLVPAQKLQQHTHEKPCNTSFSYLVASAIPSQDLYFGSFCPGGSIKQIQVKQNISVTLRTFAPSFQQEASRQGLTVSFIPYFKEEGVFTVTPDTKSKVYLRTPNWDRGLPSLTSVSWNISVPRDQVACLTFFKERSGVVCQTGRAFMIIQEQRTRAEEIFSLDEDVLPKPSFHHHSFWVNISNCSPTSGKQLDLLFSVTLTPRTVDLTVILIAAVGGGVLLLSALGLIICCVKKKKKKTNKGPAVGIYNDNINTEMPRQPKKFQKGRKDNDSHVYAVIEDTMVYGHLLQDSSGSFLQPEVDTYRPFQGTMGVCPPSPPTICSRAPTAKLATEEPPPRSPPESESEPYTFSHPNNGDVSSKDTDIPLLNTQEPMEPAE

Binder | IC50 (nM), killing of HCT116 cells (120 h), CellTiter-Glo [nM] | IC50 (nM), killing of MDA-MB-231 cells (120 h), CellTiter-Glo [nM] | IC50 (nM), killing of PC3 cells (96 h), CellTiter-Glo [nM]
B7 | 2.33 | > 40 | 0.0119
B8 | 6.87 | > 40 | 0.0225
B9 | 10.6 | > 40 | 0.0205
B10 | 11.7 | > 200 | 0.014
B11 | 13 | > 40 | 0.0184
B12 | 11.4 | > 200 | 0.0164
B13 | 5.84 | > 40 | 0.0527
B14 | 1.29 | > 40 | 0.0106

target: T3, huCDCP1-his (human, UniProt Q9H5V8 30-667, limits assumed); experiment: SPR (Caterra), antigen immobilized
T3 construct: also called human CDCP1 antigen; not shown: his tag
T3 sequence (looked up): T1 sequence (looked up)
Experimental: as §1

Binder | Kd [nM]
B1 | 0.722
B2 | 1.61
B3 | 7.66
B4 | 1.74
B5 | 1.44
B6 | 0.201

target: T2, human CDCP1 on tumor cells; experiment: laser confocal microscopy, HCC1806 cells, dye-labeled antibody
Excerpt: The lysosomes were labeled with red fluorescence, and the relative position changes and colocalization of green fluorescence and red fluorescence in the cells were detected to determine whether the antibodies were colocalized with lysosomes after endocytosis into the cells.

Binder | binding result
B15 | binds
